According to US11866760B2, “Microorganisms for the production of insect pheromones and related compounds” (Provivi, Inc., priority 2017, dated 2024):
Positions count from the first letter of the chain named. Numbers in names are those of the source.

Key:
[1] = test system: palmitic acid; assay: in vivo bioconversion assay of desaturases in C. tropicalis SPV053; type: cell-based, Candida tropicalis
Procedure: Functional expression of the heterologous desaturases was characterized by a series of in vivo bioconversion experiments. C. tropicalis SPV053 derived stains expressing insect desaturases were cultured in rich (YPD) or defined (CM glucose) media supplemented with ethanol (for induction) and saturated acid substrates (palmitic acid, methyl palmitate, methyl myristate). Small scale (2 ml) cultures were cultivated for a total of 72 hours in 24 deep well plates with substrate added after the initial 24 hours.
Positive isolates were re-patched onto YPD+300 μg/ml Zeocin and grown overnight and then stored at 4° C. Strains were inoculated from patch plates into 2 ml of YPD in 24 deep well plates (square well, pyramid bottom). Three positive clones were inoculated for each desaturase variant and the mCherry expressing control strain. Deep well plates were incubated at 30° C., 1000 rpm, and 80% humidity in the Infors HT Multitron Pro plate shaker for 24 hrs. After 24 hrs of incubation, cultures were split into equal 1 ml volumes to make two sets of identical plates. Both sets of plates were pelleted by centrifugation at 500×g. One set of plates was resuspended in 2 ml of YPD+0.3% (v/v) ethanol and the second set was resuspended in 2 ml of CM glucose+0.3% ethanol. Ethanol was added at this stage to induce recombinant enzyme expression from the ICL promoter. Cultures were incubated for another 24 hours under the same conditions before 300 mg/L palmitic acid was added to cultures from a 90 g/L stock solution in ethanol. The result was the addition of a fresh 0.3% ethanol in conjunction with the palmitic acid. A subset of strains was also cultured without palmitic acid addition. These cultures had 0.3% ethanol added instead. All cultures were incubated for an additional 24 hrs before a final addition of 0.3% ethanol. After another 24 hr period of incubation, 1.5 ml of each culture was harvested in 1.7 ml microcentrifuge tubes and pelleted. Supernatant was saved in fresh tubes and pellets were processed as described below. A subset of supernatant samples was also extracted to look for free acid in the extracellular medium.
The mCherry control and confirmed positive variants were rescreened using both palmitic acid and methyl palmitate as substrates. The culturing was conducted as described above with equimolar (1.17 mM) amounts of substrate added from ethanol stock solutions (methyl palmitate 94 g/L stock, 313 mg/L final concentration). The same protocol was also repeated with the full panel of strains using an 84 g/L stock of methyl myristate (C14:0). The final concentration of substrate was again 1.17 mM.
The in vivo bioconversion assay was scaled up for confirmation of (Z)-11-hexadecenoic acid synthesis. 2 ml YPD seed cultures of strains SPV0302, SPV0303, and SPV0304 (mCherry), […], SPV0305, and SPV0306 (A. transitella Z11 desaturase), and SPV0307, SPV0308, and SPV0309 (H. zea Z11 desaturase) were grown overnight at 30° C., 1000 rpm, 80% humidity in the Infors HT Multitron plate shaker. 200 μl of overnight culture from each of the three clonal isolates was pooled and inoculated into a single 125 ml baffled flask containing 20 ml YPD. The resulting three flasks were grown for 24 hrs at 30° C. and 250 rpm (Infors Flask shaker). Cultures were pelleted by centrifugation at 500×g and resuspended in 20 ml of YPD+0.3% (v/v) ethanol and returned to 125 ml baffled shake flasks. Cultures were incubated for an additional 24 hours before addition of 300 mg/L palmitic acid in a 90 g/L stock in ethanol (221 μl per flask). After 24 hours of incubation another 0.3% (v/v) ethanol (221 μl) was added to each flask for sustained induction. Flasks were incubated for an additional 24 hours before cells were harvested for FAME analysis and DMDS derivatization.
Total lipid composition as well as the (Z)-11-hexadecenoic acid quantification was based on modified procedures by Moss et al. (1982) and Yousuf et al (2010). […]

[2] = test system: S. cerevisiae ΔOLE1; assay: ΔOLE1 growth complementation assay without UFA; type: cell-based, Saccharomyces cerevisiae
Text: S. cerevisiae ΔOLE1 (MATA OLE1::LEU2 ura3-52 his4) was used as an expression host. A synthetic expression cassette termed pOLE1 (FIG. 10, SEQ ID NO: 4) which comprises the OLE1 promoter region (SEQ ID NOs: 5 and 6), nucleotides encoding for 27 N-terminal amino acids of the OLE1 leader sequence (SEQ ID NO: 7), and a VPS13 terminator sequence (SEQ ID NO: 8) was created, and cloned into pESC-URA vector in between SacI and EcoRI sites. To test the functionality of the pOLE1 cassette, Dasher GFP synthon was inserted in between SpeI and NotI sites to create pOLE1-GFP plasmid. Competent ΔOLE1 was transformed with pOLE1-GFP, and plated on CM-Ura glucose agar plate (Teknova) containing UFA (20 mm CM-URA glucose agar plate was coated with 100 μL CM-Ura glucose medium containing 1% tergitol, and 3 μL palmitoleic acid). […] Validation of ΔOLE1 complementation was performed by restoring OLE1 activity. Specifically, native S. cerevisiae OLE1 synthon was inserted into pOLE1 cassette devoid of the leader sequence to create pOLE1-OLE1 plasmid. After transformation of ΔOLE1, and selection on CM-Ura glucose agar containing UFA, single colonies were patched onto YPD and CM-Ura glucose without UFA. After incubation at 30° C. for 5 days, growth was observed (FIG. 11A-FIG. 11E). As expected, Dasher GFP expression could not complement ΔOLE1 growth without UFA (FIG. 11A-FIG. 11E). DNA sequences which encode for desaturase variants were synthesized (to include nucleotide changes which remove restriction sites used for cloning purposes), and cloned into pOLE1 using SpeI-NotI sites (Genscript, SEQ ID NOs: 9-13). Complementation assay of ΔOLE1 with insect desaturases were performed in the same way as with OLE1 desaturase.

[3] = test system: methyl palmitate; assay: HaFAR mutant library cultivation in 24 well plates in Y. lipolytica SPV603; type: cell-based, Yarrowia lipolytica; settings: second FAR copy in SPV603, 24 well plates
Procedure: Four individual clones of positive integrants were tested. Cultivation was performed in 24 well plates. Briefly, 2 mL YPD was inoculated from patches of individual clones and incubated for 24 h at 28° C., 1000 rpm. After 24 h OD600 was measured and the cells were centrifuged at 1000 rpm (Table 23). The cell pellets were resuspended in 1 mL S2 media and 10 g/L methyl palmitate was added. The cells were incubated for 18 h at 28° C., 1000 rpm. Cultivations were stored at −20° C. until analyzed. Extraction and analysis was performed according to previously established standard protocols using GC-FID.
In a first round four individual isolate from each transformation was tested. Cultivation was performed in 24 well plates. 2 mL YPD was inoculated from patches of individual clones and incubated for 24 h at 28° C., 1000 rpm. After 24 h OD600 was measured and the cells were centrifuged at 1000 rpm. The cell pellets were resuspended in 1 mL S2 media and 10 g/L methyl palmitate was added. The cells were incubated for 24 h at 28° C., 1000 rpm. Cultivations were stored at −20° C. until analyzed. Next, four clones of the best performing positive integrant were tested. Cultivation was performed in 24 well plates. 2 mL YPD was inoculated from patches of individual clones and incubated for ˜28 h at 28° C., 1000 rpm. After 28 h OD600 was measured and the cells were centrifuged at 1000 rpm. The cell pellets were resuspended in 1 mL S2 media and 10 g/L methyl palmitate was added. The cells were incubated for 18 h at 28° C., 1000 rpm. Cultivations were stored at −20° C. until analyzed.
Cell pellets were resuspended with 500 μL 5% NaOH (in methanol) then heated for 1 hour at 85° C. Samples were cooled down and then acidified by adding 400 μL 5N HCl. Next, 500 μL chloroform (containing 1 mM C17:0 heptadecanoate internal standard) were added to samples. Samples were mixed vigorously then spun down for 2 minutes at 13,000 RPM using a table top centrifuge. 450 μL chloroform were transferred to a new vial then evaporated at 85° C. for ˜15 minutes. Samples were then resuspended in 50 μL BSTFA (and were now ready for GC analysis). After analysis of the fatty alcohols samples were diluted ˜1:10 and rerun on the GC to improve peak separation of the fatty acid peaks.
All quantifications were based on the concentration of the internal standard. The concentration of the internal standard C17ME is 1 mM. The final concentration of fatty alcohols as well as fatty acids were calculated based on the effective carbon number compared to the internal standard.

[4] = SPV053, supplementation not stated

B1: A. transitella desaturase: Amyelois transitella Z11 desaturase (JX964774) (protein, listed as Amyelois transitella)
chain: MVPNKGSSDVLSEHSEPQFTKLIAPQAGPRKYKIVYRNLLTFGYWHLSAVYGLYLCFTCAKWATILFAFFLYVIAEIGITGGAHRLWAHRTYKAKLPLEILLLIMNSIAFQDTAFTWARDHRLHHKYSDTDADPHNATRGFFYSHVGWLLVKKHPEVKARGKYLSLDDLKNNPLLKFQKKYAILVIGTLCFLMPTFVPVYFWGEGISTAWNINLLRYVMNLNMTFLVNSAAHIFGNKPYDKSIASVQNISVSLATFGEGFHNYHHTYPWDYRAAELGNNRLNMTTAFIDFFAWIGWAYDLKSVPQEAIAKRCAKTGDGTDMWGRKR
- (Z)-11-hexadecenoic acid titer ([1]; SPV053): approximately 5.62 mg/L
- activity on myristoyl-CoA ([1]; SPV053, methyl myristate substrate): some activity on myristoyl-CoA
- (Z)-9-hexadecenoic acid in C16-fatty acid composition [1, 4]: 14.5%
- (Z)-11-hexadecenoic acid in C16-fatty acid composition [1, 4]: 30.0%
- hexadecanoic acid in C16-fatty acid composition [1, 4]: 55.5%
- rescue of ΔOLE1 growth without UFA ([2]; minimal medium (CM-Ura glucose) agar plate): conferred growth without UFA
- rescue of ΔOLE1 growth without UFA ([2]; rich medium (YPD) agar plate): conferred growth without UFA

B2: HaFAR (S60A) (protein)
chain: MVVLTSKETKPSVAEFYAGKSVFITGGTGFLGKVFIEKLLYSCPDIENIYMLIREKKGLAVSERIKQFLDDPLFTRLKDKRPADLEKIVLIPGDITAPDLGINSENEKMLIEKVSVIIHSAATVKFNEPLPTAWKINVEGTRMMLALSRRMKRIEVFIHISTAYTNTNREVVDEILYPAPADIDQVHQYVKDGISEEDTEKILNGRPNTYTFTKALTEHLVAENQAYVPTIIVRPSVVAAIKDEPLKGWLGNWFGATGLTVFTAKGLNRVIYGHSSYIVDLIPVDYVANLVIAAGAKSSKSTELKVYNCCSSSCNPVTIGTLMSMFADDAIKQKSYAMPLPGWYIFTKYKWLVLLLTFLFQVIPAYVTDLSRHLIGKSPRYIKLQSLVNQTRSSIDFFTNHSWVMKADRVRELYASLSPADKYLFPCDPTDINWTHYIQDYCWGVRHFLEKKSYE
- Z11-16OH titers compared to the HaFAR double copy strain [3]: neutral or showed slight increases

B3: HaFAR (S453A) (protein)
chain: B2 chain with A60S, S453A
- Z11-16OH titers compared to the HaFAR double copy strain [3]: neutral or showed slight increases

B4: HaFAR (S298A) (protein)
chain: B2 chain with A60S, S298A
- Z11-16OH titers compared to the HaFAR double copy strain [3]: neutral or showed slight increases
